Results as given in PMC13376213, “Systematic discovery of motif-based interactions of the auxiliary domains of USP family deubiquitinases” (Nature Communications, 2026).

Molecular target: USP11 DUSP-UBL tandem domain (human) (UniProt P51784)
Assay: fluorescence polarisation; displacement: serial dilution of the unlabelled peptide against the domain (at two-fold the KD of the FITC-labelled peptide) in complex with 10 nM FITC-labelled peptide; 50 mM phosphate buffer pH 7.4; room temperature; three technical replicates; sigmoidal dose-response fit

Chain of USP11 DUSP-UBL tandem domain (human) (P51784 whole entry, the tested form may be a part): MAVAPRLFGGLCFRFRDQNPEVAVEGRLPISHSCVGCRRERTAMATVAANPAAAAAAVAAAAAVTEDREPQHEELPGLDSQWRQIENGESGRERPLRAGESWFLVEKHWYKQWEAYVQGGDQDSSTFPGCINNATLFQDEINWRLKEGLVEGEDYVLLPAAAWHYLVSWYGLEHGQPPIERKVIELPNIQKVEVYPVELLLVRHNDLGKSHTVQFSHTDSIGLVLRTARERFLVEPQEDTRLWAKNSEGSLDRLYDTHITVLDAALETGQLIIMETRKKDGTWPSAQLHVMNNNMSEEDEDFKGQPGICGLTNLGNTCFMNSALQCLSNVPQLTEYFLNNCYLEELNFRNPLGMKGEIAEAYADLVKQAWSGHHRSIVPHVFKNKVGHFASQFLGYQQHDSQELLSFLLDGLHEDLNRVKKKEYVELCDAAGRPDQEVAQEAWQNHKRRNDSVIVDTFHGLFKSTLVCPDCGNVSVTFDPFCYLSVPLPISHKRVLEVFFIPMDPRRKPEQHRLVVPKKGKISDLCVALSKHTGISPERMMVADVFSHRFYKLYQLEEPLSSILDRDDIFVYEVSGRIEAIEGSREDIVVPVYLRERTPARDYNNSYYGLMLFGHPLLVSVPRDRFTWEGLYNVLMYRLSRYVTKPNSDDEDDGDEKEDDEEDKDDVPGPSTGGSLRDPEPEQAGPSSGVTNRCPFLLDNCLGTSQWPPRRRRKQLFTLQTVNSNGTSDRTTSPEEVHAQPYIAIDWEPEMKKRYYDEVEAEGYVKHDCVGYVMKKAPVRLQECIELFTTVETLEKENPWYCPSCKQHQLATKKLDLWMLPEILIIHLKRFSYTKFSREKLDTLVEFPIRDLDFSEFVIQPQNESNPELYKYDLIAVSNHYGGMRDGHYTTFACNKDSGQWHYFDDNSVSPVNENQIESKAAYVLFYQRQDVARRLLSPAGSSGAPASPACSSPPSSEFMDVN

## Ac-SAVTYPDWIGQSYSEV-NH2 [ORAI1 48-63 peptide, unlabelled]
  Kd: 207 µM
